From IntAct's records for PubMed 26040720 come the findings set out here.

B1: Reticulophagy regulator 1 (Homo sapiens), Q9H6L5-1 (parent)
chain: MASPAPPEHAEEGCPAPAAEEQAPPSPPPPQASPAERQQQEEEAQEAGAAEGAGLQVEEAAGRAAAAVTWLLGEPVLWLGCRADELLSWKRPLRSLLGFVAANLLFWFLALTPWRVYHLISVMILGRVIMQIIKDMVLSRTRGAQLWRSLSESWEVINSKPDERPRLSHCIAESWMNFSIFLQEMSLFKQQSPGKFCLLVCSVCTFFTILGSYIPGVILSYLLLLCAFLCPLFKCNDIGQKIYSKIKSVLLKLDFGIGEYINQKKRERSEADKEKSHKDDSELDFSALCPKISLTVAAKELSVSDTDVSEVSWTDNGTFNLSEGYTPQTDTSDDLDRPSEEVFSRDLSDFPSLENGMGTNDEDELSLGLPTELKRKKEQLDSGHRPSKETQSAAGLTLPLNSDQTFHLMSNLAGDVITAAVTAAIKDQLEGVQQALSQAAPIPEEDTDTEEGDDFELLDQSELDQIESELGLTQDQEAEAQQNKKSSGFLSNLLGGH

This test covers variants of B1. Conditions: with MAP1LC3A.
For the variant D453A;D454A;F455A;E456A;L457A;L458A, the “effect of a mutation on the interaction” value is reported as “disrupting interaction strength”.
